Assay results taken from patent US20210009993A1 (ROCHE DIAGNOSTICS OPERATIONS, published 2021).
Changes are numbered by the printed parent chain. In names and notes the source's numbering stands.

Target: T1, human cardiac troponin T (cTnT) (human, UniProt P45379 2-298)
T1 construct: also called Recombinant human TnT (Roche, 37 kDa)
Assay: SPR, Biacore T200, 37 C; Fab captured via anti-human F(ab')2, cTnT analyte
Procedure: Detailed kinetic investigations were performed at 37° C. on a GE Healthcare T200 instrument. A Biacore CM-5 series S sensor was mounted into the instrument and was preconditioned according to the manufacturer's instructions. The system buffer was HBS-ET (10 mM HEPES (pH 7.4), 150 mM NaCl, 1 mM EDTA, 0.05% (w/v) Tween® 20). The sample buffer was the system buffer supplemented with 1 mg/ml CMD (Carboxymethyldextran, Fluka). In one embodiment an anti-human antibody capture system was established on the CMS biosensor. GAHF(ab′)2, (goat anti human F(ab′)2) (Code Nr.: 109-005-097, lot #13.12.2005, Jackson Immuno Research) was immobilized according to the manufacturer's instructions using NHS/EDC chemistry. 30 μg/ml GAHF(ab′)2 in 10 mM sodium acetate buffer (pH 5.0) were preconcentrated to the flow cells 1, 2, 3 and 4 and were immobilized with 10.000 RU GAHF(ab′)2. The sensor was subsequently saturated with 1 M ethanolamine pH 8.5.
Chimeric anti-TnT antibody fragments were periplasmatically expressed in E. coli cells as described and were lyzed by methods known (for technical details see: Andersen, D. C. & Reilly, D. E. (2004); Production technologies for monoclonal antibodies and their fragments. Curr Opin Biotechnol 15, 456-62). The lysates were diluted 1:20 in sample buffer. Fab fragments were captured via their humanized framework regions from the expression lysates on the biosensor at a flow rate of 10 μl/min for 1 min followed by a 2 min washing step with 10-fold concentrated HBS-EP buffer at 30 μl/min. The Fab fragment capture level (CL) in response units (RU) was monitored. Recombinant human TnT (Roche, 37 kDa) was diluted in sample buffer at 90 nM and a concentration series was produced with […], 30 nM, 11 nM, 3.3 nM, 1.1 nM, 0 nM, 3.3 nM TnT concentration. The analyte concentration series were 80 μl/min for 3 min association phase and the dissociation phase was monitored for 3 min.
The kinetic parameters ka [1/Ms], kd [1/s], t1/2 diss [min], KD [M] and the binding stoichiometry (Molar Ratio) (for details see: Schraeml, M. & Biehl, M. (2012); Kinetic screening in the antibody development process. Methods Mol Biol 901, 171-81.) of the cTnT analyte were determined for each Fab fragment mutant with the Biaevaluation Software (GE healthcare) according to the manufacturer's instructions.

B1: anti-cTnT Fab fragment, CDR combination 1 (Y34F) (Fab, V domains shown)
VH: EVQLQQSGPELVKPGASVKMSCKASGYTFTDYFMKWVKQSHGKSLEWIGDINPNNGETFYNQKFKDKATLTVDKSSSTAYMQLNSLTSEDSAVYYCATRVFDYWGQGTTLTVSS
VL: DIVLTQSPASLAVSLGQRATISCKASQSVDYDGTSYMNWFQQKAGQPPKRLIYAASNLESGIPARFSGRGSGTDFALNIHPVEEEDAATYYCQQSNEDPYTFGGGTKLEIKR
notes: tested from E. coli lysate; also called mutant 1
Q: For B1, which Kd is on record?
A: Its Kd is 0.61 nM.

B2: anti-cTnT Fab fragment, CDR combination 19 (Y104F) (Fab, V domains shown)
VH: B1 VH with F33Y, Y103F
VL: B1 VL
notes: tested from E. coli lysate; also called mutant 19
Q: Which Kd does the source give for B2 here?
A: Its Kd is 0.48 nM.

B3: anti-cTnT Fab fragment, CDR combination 21 (F60W, V101Y) (Fab, V domains shown)
VH: B1 VH with F33Y, F59W, V100Y
VL: B1 VL
notes: tested from E. coli lysate; also called mutant 21
Q: B3 was tested. Which t/2-diss did it give?
A: Its t/2-diss is 3 min.

B4: anti-cTnT Fab fragment, CDR combination 9 (Y34I) (Fab, V domains shown)
VH: B1 VH with F33I
VL: B1 VL
notes: tested from E. coli lysate; also called mutant 9
Q: How did the “MR (Molar Ratio)” value turn out when B4 was run?
A: Its value is 0.6.
